In the supplement of paper PMC10567573:

B1: MIA2 (parent)
chain: DMVSNIELPTRIHEEVYFEPSSSK
B2: KLHL12 (parent)
chain: REESLPNLLQYVRMPLLTPRYITD

Variants of: B1
Assay: protein stability index of a GFP-peptide fusion (GPS, HEK-293T) (PSI 1-6); higher = more stable
Details: c terminus: a fixed tail appended
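Further: lentivirally expressed fusions sorted by FACS into six bins by GFP to DsRed ratio, PSI derived from sequencing read proportions per bin multiplied by bin number.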

Protein stability index, by site and new letter:
N5: E 4.18; F 3.95; Q 4.33; H 4.3; T 4.47; M 3.99; R 3.92; W 4.38; P 5.11; V 3.5; D 4.56; A 4.14; C 4.04; I 3.86; L 3.19; K 4.43; S 4.46; G 3.84; Y 2.46
I6: S 4.07; T 4.48; M 4.32; N 4.77; Y 4.03; D 4.86; E 5.27; H 4.34; G 4.52; R 3.84; L 4.16; W 3.32; P 4.4; A 4.51; C 4.91; K 4.68; Q 4.19; V 4.18; F 4.08
S4: V 3.33; Y 4.01; G 3.82; M 3.51; T 3.73; F 2.35; P 4.34; I 1.93; K 4.07; N 4.03; R 3.97; L 3.12; D 3.98; A 3.97; H 4.29; Q 3.52; C 3.44; W 2.6; E 4.48
M2: I 3.62; V 3.64; P 5.15; C 4.99; F 3.28; G 4.78; N 5.1; Q 5.01; R 4.18; K 3.55; L 3.7; T 5.12; E 5.23; W 2.8; Y 3.72; A 5.19; D 5.43; S 5.02; H 4.48
P9: L 3.65; H 3.5; A 3.46; I 3.3; E 4.21; G 3.53; F 3.01; C 3.53; D 3.46; K 3.89; M 3.35
E7: I 2.88; T 2.78; V 3.53; Y 2.11; D 3.83; N 2.85; H 3.98; P 3.34; G 3.58; W 2.64; S 3.02; K 3.03; M 3.29; R 3.33; Q 2.9; A 3.65; C 3.32; L 3.16; F 3.59
D1: S 3.5; A 3.62; Y 3.42; R 4.25; E 3.16; F 2.87; W 2.63; N 4.15; C 2.86; P 4.09; I 2.36; M 2.73; V 1.98; T 3.63; H 4.67; Q 3.95; G 3.65; L 3.11; K 3.93
L8: M 3.46; N 4.44; E 5.22; G 4.74; F 4.47; A 4.46; K 3.83; C 4.02; P 4.4; V 4.13; Q 4.53; I 4.04; Y 3.52; D 4.54; H 4.56; W 4.22; T 4; R 3.64; S 4.5
V3: S 4.26; Y 3.87; M 4.09; A 3.79; E 4.65; G 4.23; P 4.1; W 3.15; T 3.04; R 4.56; L 3.53; N 3.86; I 4.26; C 3.97; F 3.73; Q 4.02; H 3.56; K 4.02; D 3.89

Variants of: B2
Assay: as above
Details: c terminus: a fixed tail appended

Protein stability index: each site, then its substitutions
L17: P 2.54; C 2.85; K 3.51; H 2.83; Y 2.98; V 3.56; T 2.54; I 2.54; Q 2.86; E 3.45; M 2.63; R 3.48; F 2.16; D 3.43; W 2.33; G 2.77; S 2.87; N 3.42; A 3.51
R20: Y 1.67; N 2.78; E 2.7; S 2.72; D 3.03; Q 2.54; A 2.19; C 2.12; T 2.15; L 2.55; K 3.48; H 2.56; I 2.68; P 2.21; F 1.95; W 1.22; V 1.92; G 3.29; M 1.97
Y21: M 2.97; T 3.26; W 1.79; K 3.93; F 2.22; L 2.62; P 3.15; H 3.08; Q 3.85; C 2.95; S 3.37; R 3.24; N 3.25; D 3.69; E 3.17; A 3.59; V 2.72; G 3.4; I 2.84
T18: Q 2.5; L 2.42; K 2.19; V 1.97; A 2.36; D 2.38; Y 1.95; F 2.46; H 2.52; E 2.87; S 2.27; R 2.67; W 1.55; G 3.92; C 1.96; M 1.81; P 2.29; N 1.7; I 2.17
D24: Y 2.22; R 2.75; H 2.06; G 2.28; V 1.57; A 1.84; Q 2.5; P 2.04; S 2.01; N 2.35; W 2.11; I 3.11; M 1.6; C 1.81; L 1.71; T 2.17; E 2.26; F 2.04; K 2.64
T23: F 1.62; M 2.61; W 1.7; E 2.81; Y 2.09; P 2.57; C 2.03; N 2.85; A 2.9; I 2.12; V 2.04; Q 2.65; D 3.12; S 2.66; R 3.83; H 2.58; G 2.48; K 3.35; L 2.02
I22: Q 2.54; S 2.72; C 2.55; G 2.4; E 3.22; R 3.84; A 2.76; F 1.93; M 1.94; T 3.39; N 2.71; L 2.4; Y 2.34; H 2.86; D 3.27; V 2.18; K 3.71; W 1.93; P 3.71
P19: M 2.02; V 2.22; F 2.17; T 2.46; A 2.74; N 2.48; C 2.28; Q 2.18; I 2.12; H 1.47; W 2.41; L 2.48; D 2.9; G 2.75; S 2.14; R 2.39; K 2.41; Y 1.4; E 3.03
L16: W 1.6; S 3.56; K 2.93; D 2.69; A 2.56; R 3.25; N 2.77; C 2.41; F 2.27; G 2.84; V 3.03; I 2.45; T 2.75; H 3.18; E 3.04; Q 3.12; Y 2.98; M 2.46; P 2.77
